B1: MATN2 (parent)
chain: FSLKTFKRKSEVERAVKRMRHLST

Variants of: B1
Experiment: protein stability index of a GFP-peptide fusion (GPS, HEK-293T) (PSI 1-6); higher = more stable
Details: c terminus: a fixed tail appended
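Further: lentivirally expressed fusions sorted by FACS into six bins by GFP to DsRed ratio, PSI derived from sequencing read proportions per bin multiplied by bin number.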

Variant	protein stability index
FSLKTVKRKSEVERAVKRMRHLST [F6V]	2.96
FSLKTLKRKSEVERAVKRMRHLST [F6L]	2.55
FSLKTWKRKSEVERAVKRMRHLST [F6W]	1.16
FSLKTKKRKSEVERAVKRMRHLST [F6K]	3.47
FSLKTEKRKSEVERAVKRMRHLST [F6E]	3.27
FSLKTHKRKSEVERAVKRMRHLST [F6H]	2.94
FSLKTNKRKSEVERAVKRMRHLST [F6N]	2.38
FSLKTCKRKSEVERAVKRMRHLST [F6C]	2.28
FSLKTTKRKSEVERAVKRMRHLST [F6T]	2.75
FSAKTFKRKSEVERAVKRMRHLST [L3A]	2.94
FSQKTFKRKSEVERAVKRMRHLST [L3Q]	2.23
FSKKTFKRKSEVERAVKRMRHLST [L3K]	3.54
FSRKTFKRKSEVERAVKRMRHLST [L3R]	3
FSSKTFKRKSEVERAVKRMRHLST [L3S]	2.45
FSIKTFKRKSEVERAVKRMRHLST [L3I]	2.56
FSYKTFKRKSEVERAVKRMRHLST [L3Y]	2.15
FSDKTFKRKSEVERAVKRMRHLST [L3D]	2
FSFKTFKRKSEVERAVKRMRHLST [L3F]	2.23
FSVKTFKRKSEVERAVKRMRHLST [L3V]	2.11
FSCKTFKRKSEVERAVKRMRHLST [L3C]	1.93
FSNKTFKRKSEVERAVKRMRHLST [L3N]	1.98
FSHKTFKRKSEVERAVKRMRHLST [L3H]	2.78
FSPKTFKRKSEVERAVKRMRHLST [L3P]	2.13
FSEKTFKRKSEVERAVKRMRHLST [L3E]	3.08

Variant	protein stability index
FSTKTFKRKSEVERAVKRMRHLST [L3T]	2.3
FSWKTFKRKSEVERAVKRMRHLST [L3W]	3.27
FSMKTFKRKSEVERAVKRMRHLST [L3M]	2.25
FSGKTFKRKSEVERAVKRMRHLST [L3G]	2.91
FNLKTFKRKSEVERAVKRMRHLST [S2N]	2.84
FMLKTFKRKSEVERAVKRMRHLST [S2M]	2.5
FLLKTFKRKSEVERAVKRMRHLST [S2L]	1.55
FGLKTFKRKSEVERAVKRMRHLST [S2G]	3.21
FYLKTFKRKSEVERAVKRMRHLST [S2Y]	1.82
FQLKTFKRKSEVERAVKRMRHLST [S2Q]	3.07
FTLKTFKRKSEVERAVKRMRHLST [S2T]	1.99
FRLKTFKRKSEVERAVKRMRHLST [S2R]	2.36
FKLKTFKRKSEVERAVKRMRHLST [S2K]	1.95
FCLKTFKRKSEVERAVKRMRHLST [S2C]	1.5
FHLKTFKRKSEVERAVKRMRHLST [S2H]	1.99
FELKTFKRKSEVERAVKRMRHLST [S2E]	2.51
FPLKTFKRKSEVERAVKRMRHLST [S2P]	2.42
FALKTFKRKSEVERAVKRMRHLST [S2A]	1.8
FDLKTFKRKSEVERAVKRMRHLST [S2D]	2.77
FVLKTFKRKSEVERAVKRMRHLST [S2V]	3.07
FWLKTFKRKSEVERAVKRMRHLST [S2W]	1.39
FSLKTFKRKSDVERAVKRMRHLST [E11D]	2.39
FSLKTFKRKSPVERAVKRMRHLST [E11P]	2.17
FSLKTFKRKSQVERAVKRMRHLST [E11Q]	2.44

Variant	protein stability index
FSLKTFKRKSSVERAVKRMRHLST [E11S]	1.98
FSLKTFKRKSGVERAVKRMRHLST [E11G]	2.46
FSLKTFKRKSIVERAVKRMRHLST [E11I]	1.96
FSLKTFKRKSNVERAVKRMRHLST [E11N]	2.82
FSLKTFKRKSMVERAVKRMRHLST [E11M]	2.8
FSLKTFKRKSRVERAVKRMRHLST [E11R]	3.21
FSLKTFKRKSLVERAVKRMRHLST [E11L]	2.56
FSLKTFKRKSCVERAVKRMRHLST [E11C]	1.76
FSLKTFKRKSFVERAVKRMRHLST [E11F]	2.01
FSLKTFKRKSKVERAVKRMRHLST [E11K]	3.17
FSLKTFKRKSAVERAVKRMRHLST [E11A]	2.52
FSLKTFKRKSHVERAVKRMRHLST [E11H]	2.29
FSLKTFKRKVEVERAVKRMRHLST [S10V]	3.04
FSLKTFKRKFEVERAVKRMRHLST [S10F]	1.77
FSLKTFKRKQEVERAVKRMRHLST [S10Q]	2.26
FSLKTFKRKAEVERAVKRMRHLST [S10A]	1.72
FSLKTFKRKMEVERAVKRMRHLST [S10M]	1.91
FSLKTFKRKGEVERAVKRMRHLST [S10G]	1.99
FSLKTFKRKREVERAVKRMRHLST [S10R]	2.46
FSLKTFKRKNEVERAVKRMRHLST [S10N]	3.07
FSLKTFKRKWEVERAVKRMRHLST [S10W]	2.88
FSLKTFKRKEEVERAVKRMRHLST [S10E]	2.42
FSLKTFKRKPEVERAVKRMRHLST [S10P]	2.62
FSLKTFKRKIEVERAVKRMRHLST [S10I]	1.49

Variant	protein stability index
FSLKTFKRKLEVERAVKRMRHLST [S10L]	1.39
FSLKTFKRKDEVERAVKRMRHLST [S10D]	2.05
FSLKTFKRKKEVERAVKRMRHLST [S10K]	2.21
FSLKTFKRKTEVERAVKRMRHLST [S10T]	2.73
FSLKTFKRKHEVERAVKRMRHLST [S10H]	2.77
FSLKTFKRKYEVERAVKRMRHLST [S10Y]	2.3
FSLKMFKRKSEVERAVKRMRHLST [T5M]	2.91
FSLKPFKRKSEVERAVKRMRHLST [T5P]	2.11
FSLKYFKRKSEVERAVKRMRHLST [T5Y]	1.89
FSLKVFKRKSEVERAVKRMRHLST [T5V]	1.8
FSLKAFKRKSEVERAVKRMRHLST [T5A]	1.94
FSLKIFKRKSEVERAVKRMRHLST [T5I]	2.29
FSLKLFKRKSEVERAVKRMRHLST [T5L]	1.58
FSLKKFKRKSEVERAVKRMRHLST [T5K]	2.48
FSLKEFKRKSEVERAVKRMRHLST [T5E]	1.47
FSLKFFKRKSEVERAVKRMRHLST [T5F]	2.56
FSLKRFKRKSEVERAVKRMRHLST [T5R]	2.48
FSLKGFKRKSEVERAVKRMRHLST [T5G]	2.71
FSLKHFKRKSEVERAVKRMRHLST [T5H]	1.91
FSLKDFKRKSEVERAVKRMRHLST [T5D]	2.75
FSLKSFKRKSEVERAVKRMRHLST [T5S]	2.4
FSLKQFKRKSEVERAVKRMRHLST [T5Q]	3.18
